According to the supplement of paper PMC9170038:

Test system: MS2 coat protein
Assay: apparent KD of MS2 coat protein; designed switch direction (-1 OFF switch, 1 ON switch): -1; higher = weaker reporter binding
In short: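 Designed RNA switches sharing common flanks were transcribed on Illumina chips by stalled E. coli RNA polymerase. They were titrated with SNAP-549-labelled MS2 coat protein, from 0.7 or 1.5 nM doubling to 3 µM, in Tris-HCl pH 7.5 buffer with KCl, MgCl2, BSA, DTT, tRNA and Tween-20. Titrations ran without input, with 200 uM small-molecule ligand, or with an oligonucleotide input. The apparent KD of each design is the median over its clusters, after curve-fitting of normalised cluster fluorescence.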

[1] = Eterna round: R95, input ligand: microRNA oligo, concentration not stated
[2] = input ligand: microRNA oligo, concentration not stated
[3] = Eterna round: R95, input ligand: FMN 200 uM
[4] = Eterna round: R95, input ligand: none

Sequence | apparent KD of MS2 coat protein [1] [nM] | apparent KD of MS2 coat protein (input ligand: FMN 200 uM) [nM] | apparent KD of MS2 coat protein [2] [nM] | apparent KD of MS2 coat protein (input ligand: none) [nM] | further results
UUCCUGUCAGGAUAUGACUAGAUGCACGAAAGUGUUUUUAGUUAGAAGGGACAUGAGGAUCACCCAUGUAGUCC [Bring Us a Shrubbery-19] (puzzle: Exclusion 4) | 21.9 | – | – | – | –
UUCGUGCAGCUUUGCUGUACGCGUACAUGAGGAUCACCCAUGUAGGAUAUGGUAGGCUUUGCUUACUAGAAGGAUAGAGUGAUC [JL EXNG3 1.29] (Eterna round: R96, puzzle: Exclusion NG 3) | – | 80.7 | 67.8 | 95.7 | –
UUCGUGUAAGGAUAUACGACCCAUCCCAUUGGGAUGGGCACGUAGAAGGUACAUGAGGAUCACCCAUGUGCUCC [Ceacequa] (Eterna round: R96, puzzle: Exclusion 4) | – | 298 | 34.4 | 41.4 | –
UUCUAUUCAGGAUAUACAUGAGGAUCACCCAUGUGAUUUGCCUCGCGGAAGACUAGACGUAGAAGGGAGUCCCU [Eternabot (L2) Solution 7] (Eterna round: R97, puzzle: Exclusion 3) | – | 91.3 | – | 111 | –
UUCUCGUCAGGAUAUUUGUUGUUGUUGGAAACGGCGGCGGCGGAGAAGGGACAUGAGGAUCACCCAUGUCUGGU [-27.7, -24.8 kcal, 20% A] (Eterna round: R97, puzzle: Exclusion 4) | – | 28.5 | – | 21.2 | –
UUGAAGUCGUCAGGAUAUAGUUUUAAUGUCAUGCGUAUGUUCUUACAUGAGGAUCACCCAUGUCGCUAGAAGGGACUAAAGAUU [JR_ExcNG2_Sub010] (Eterna round: R96, puzzle: Exclusion NG 2) | – | 43.9 | 33.4 | 44.4 | –
UUGAUUCAUUCCUCCAUAAACAUGAGGAUCACCCAUGUAAGUGAGGAUAUAGUUGGAGUAGUAUACUAGAAGGCACUUAGAUAU [JR_ExcNG3_Sub047] (Eterna round: R96, puzzle: Exclusion NG 3) | – | – | 8.77 | – | –
UUGCAGUCGUCAGGAUAUAGUAUUACGGCCUUUCAUUUCUUCAUACAUGAGGAUCACCCAUGUCGCUAGAAGGGCUUAUCGCUU [salish99_ExNG2_r04_108] (Eterna round: R96, puzzle: Exclusion NG 2) | – | – | 11.1 | – | –
UUGUAAUGAUUAGGAUAUUAUUAAUAGAACUUUAUGAUAUACAUGAGGAUCACCCAUGUUACUUAUAAGAAGGAAUCGUAUUAU [JR_ExcNG2_Sub092] (Eterna round: R96, puzzle: Exclusion NG 2) | – | – | 15.7 | – | –
UUGUGCACGCUGCGGUCCUACAUGAGGAUCACCCAUGUGGUCUGGUGGCGUGGGUCGCCGGACUUGGCUCGUCUUGA [salish99_S_TOV1_R5_027] (Eterna round: R97, puzzle: Sensor, turn-off variant 1) | – | 18.4 | – | 18.8 | –
UUGUUACAUGAGGAUCACCCAUGUGAGGAUAUGGCCCGCCCGGCGUGAGCUGGUUUUGUCAGAAGGCGCAUAGG [salish99_ex1_r4_024] (Eterna round: R97, puzzle: Exclusion 1) | – | 79.6 | – | 54.2 | –
UUGUUAUAUGUAGGAUAUGCAUAUUAUUAUUAUGCAGAAGGACAUGAGGAUCACCCAUGUGUAUUAUUAUUAUAUAUUAUAUAU [Title] (Eterna round: R96, puzzle: Exclusion NG 1) | – | – | 17.4 | – | –
UUGUUGUAUGUAGGAUAUGCAUAUUAUUAUUGUGCAGAAGGACAUGAGGAUCACCCAUGUAUAUUAUUAUUAUAUGUUAUAUAU [Title] (Eterna round: R96, puzzle: Exclusion NG 1) | – | – | 22.1 | – | –
UUGUUGUAUGUAGGAUAUGCAUGUUAUUAUUAUGCAGAAGGACAUGAGGAUCACCCAUGUGUAUUAUUAUUAUAUAUUAUAUAU [Title] (Eterna round: R96, puzzle: Exclusion NG 1) | – | – | 15.4 | – | –
UUGUUGUAUGUAGGAUAUGCGUAUUAUUAUUGGGCAGAAGGACAUGAGGAUCACCCAUGUAUGUUGUUGUUAUAUAUUAUAUAU [Title] (Eterna round: R96, puzzle: Exclusion NG 1) | – | 66.4 | 35.8 | 47.8 | –
UUGUUGUGUGUAGGAUAUGCAUAUUAUUAUUAUGCAGAAGGACAUGAGGAUCACCCAUGUAUAUUAUUAUUAUAUAUUAUAUAU [Title] (Eterna round: R96, puzzle: Exclusion NG 1) | – | – | 22.6 | – | –
UUUAAUGGAAUUAAGAUCACAUGAGGAUCACCCAUGUAUAUAUAGGAUAUCAGCUCGUUUAGAGCUGAGAAGGAUAUAUACAUA [ExNG3/6-B2] (Eterna round: R96, puzzle: Exclusion NG 3) | – | 90.1 | 119 | 356 | –

Sequence | apparent KD of MS2 coat protein [1] [nM] | apparent KD of MS2 coat protein (input ligand: FMN 200 uM) [nM] | apparent KD of MS2 coat protein [2] [nM] | apparent KD of MS2 coat protein (input ligand: none) [nM] | further results
UUUAAUUUUUUUUUUUUACAAGCUUUUUGCUCGUCUUAUACAUGAGGAUCACCCAUGUAGAUGGGAAAUGAAUUAUC [JMF 98] (puzzle: Sensor v3, turn-off variant 2) | 144 | – | – | – | apparent KD of MS2 coat protein [3]: 26.1 nM; apparent KD of MS2 coat protein [4]: 22.7 nM
UUUAAUUUUUUUUUUUUACAAGCUUUUUGCUCGUCUUAUACAUGAGGAUCACCCAUGUGAAUGGAGGAUAAAUUAUC [JMF 30] (puzzle: Sensor v3, turn-off variant 2) | 33.1 | – | – | – | apparent KD of MS2 coat protein [3]: 29.5 nM; apparent KD of MS2 coat protein [4]: 26 nM
UUUAAUUUUUUUUUUUUACAAGCUUUUUGCUCGUCUUAUACAUGAGGAUCACCCAUGUGAGUGGAAGGUAAAUUAUC [JMF 69] (puzzle: Sensor v3, turn-off variant 2) | 18 | – | – | – | apparent KD of MS2 coat protein [3]: 12.6 nM; apparent KD of MS2 coat protein [4]: 11.8 nM
UUUAAUUUUUUUUUUUUACAAGCUUUUUGCUCGUCUUAUACAUGAGGAUCACCCAUGUGGGUGAGGAGUAAAUUAUC [JMF 61] (puzzle: Sensor v3, turn-off variant 2) | 19.1 | – | – | – | apparent KD of MS2 coat protein [3]: 37.9 nM; apparent KD of MS2 coat protein [4]: 66.7 nM
UUUAGUUCAGGAUAUGUAGAUUUUAACAUGAGGAUCACCCAUGUAGAUCCUGAAUUAACUACAGAAGGGAGCAUUU [Mod of Brourd 16 - Jieux - Exclusion 5] (Eterna round: R97, puzzle: Exclusion 5) | – | 33.6 | – | 18.4 | –
UUUAGUUCAGGAUAUGUAGAUUUUAACAUGAGGAUCACCCAUGUAGAUCCUGAUCCUGCUACAGAAGGGAAAAUUU [Mat - Exclusion 5 - Eli Mod - D9] (Eterna round: R97, puzzle: Exclusion 5) | – | 24.4 | – | 25.6 | –
UUUAUAUAGUAAGGAUAUGUAUUAUUUCUAUCAACAGAAGGUACUGACAUGAGGAUCACCCAUGUUUUAGUGUGGGCAUGUAGU [JMF's solution 97] (Eterna round: R96, puzzle: Exclusion NG 1) | – | – | 200 | – | –
UUUCAACAUGAGGAUCACCCAUGUCAGGAUAUCAUUUAGCUCAUACACUUACCAUCAUUGAGAAGGGACAUGCU [Colors] (Eterna round: R97, puzzle: Exclusion 1) | – | 15.7 | – | 19 | –
UUUCUCGUUGUGAGGAUAUCGUUUUUGUUUUGGAUCGAGAAGGCACAUGAGGAUCACCCAUGUUUGUUGUGGUU [JR_BMOE4_Sub088] (puzzle: Brourd's mod of Exclusion 4) | 93.3 | – | – | – | –
UUUGGCAGAGGAUAUACAUGAGGAUCACCCAUGUAUAAGUGGGAUGCGUGCAAAUACUGUAGAAGGCUGCCUCU [Eternabot (L2) Solution 66] (Eterna round: R97, puzzle: Exclusion 3) | – | 50.1 | – | 73 | –
UUUGUAUAGCAAGGAUAUGUUUAAUUAUAGUUGCCUCAUACAUGAGGAUCACCCAUGUUUUACUUACAGAAGGUGCAAUGAUUU [JR_ExcNG2_Sub035] (Eterna round: R96, puzzle: Exclusion NG 2) | – | – | 242 | – | –
UUUUAACAUGAGGAUCACCCAUGUGAGGAUAUCGAAAUUUAUAUUAAUAUUAAUUUAUCGAGAAGGCACAUUUU [JMF 32] (puzzle: Exclusion 1) | 108 | – | – | – | –
UUUUAACAUGAGGAUCACCCAUGUGAGGAUAUCGAAAUUUAUAUUAAUAUUAUUAAUUCGAGAAGGCACAUUUU [JMF 37] (puzzle: Exclusion 1) | 126 | – | – | – | –
UUUUAACAUGAGGAUCACCCAUGUGAGGAUAUCGAAAUUUAUAUUAAUAUUAUUAUUACGAGAAGGCACAUUUU [JMF 42] (puzzle: Exclusion 1) | 69.3 | – | – | – | –
UUUUAACAUGAGGAUCACCCAUGUGAGGAUAUCGAAAUUUAUAUUAAUAUUAUUUAAACGAGAAGGCACAUUUU [JMF 43] (puzzle: Exclusion 1) | 70.4 | – | – | – | –
UUUUAACAUGAGGAUCACCCAUGUGAGGAUAUCGAAAUUUAUAUUAAUAUUUAUAAAACGAGAAGGCACAUUUU [JMF 51] (puzzle: Exclusion 1) | 78.6 | – | – | – | –
UUUUAACAUGAGGAUCACCCAUGUGAGGAUAUCGAAAUUUAUAUUUAUAUUAAUUAUACGAGAAGGCACAUUUU [JMF 86] (puzzle: Exclusion 1) | 65.5 | – | – | – | –
